Experimental data as given in the nanobody polyreactivity screen of Harvey et al. (2022).

Test: yeast display, Sf9 membrane polyspecificity reagent, FACS + sequencing; frameworks hold sequencing errors
Method in brief: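 Nanobodies from a synthetic yeast display library (Saccharomyces cerevisiae BJ5465), induced 36–48 hours with galactose, were stained 1 hour at 4 °C with 10% biotinylated, detergent-solubilized Sf9 membrane reagent, enriched on streptavidin microbeads, then FACS-sorted. Anti-HA (expression) and streptavidin (reagent binding) fluorescence set low and high (top ~1%) gates. Polyreactivity labels come from the gate of origin. Genes were colony-PCR amplified, MiSeq 2 × 250 sequenced and filtered by CDR length.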

Sequence	polyreactivity (PSR sort gate)
QVQLVESGGGLVQAGGSLRLSCAASGFIFTTYAMGWYRQEPGTERELVAAISGRGGTTYYADSVKGRFTISRDNAKNTVYLQMNSMKPEDTAVYYCAADGYPGDDYWGQGTQVTVSS	high polyreactivity
QVQLVESGGGLVQAGGSLRLSCAASGFIFTVYALGWYRQAPVKERELVATITGTGDTNYADSVKGRFTISRDNAKNTVYLQMNSLKPEDTAVYYCAVSPRVPFRKPVLTPYNMYYWGQGTQVTVSS	high polyreactivity
QVQLVESGGGLVQAGGSLRLSCAASGFIFTYYALGWYRQAPGKERELVAAITIGGTTNYADSVKGRFTISRDNAKNTVYLQMNSLKPEDTAVYYCAAYFTIEDWYYNEAVRYYYWGQGTKVTVSS	high polyreactivity
QVQLVESGGGLVQAGGSLRLSCAASGFIFVDNAMGWYRQAPRQERELVASITRGGSTDYADSVKGRFTISRDNAKNTVYLQRNSLKPEDTAVYYCAASWHRPAPDEGMDYWGQGTQVTVSS	low polyreactivity
QVQLVESGGGLVQAGGSLRLSCAASGFIFVDYVMGWDIQAPGKERELVAAISERGTGTYYADSVKRRFTISRDKAKNTVYLQMNSLKPEDTAVYYCATLGTGWWNCAYYYWGQGTQVTVSS	low polyreactivity
QVQLVESGGGLVQAGGSLRLSCAASGFIFVEYAMGWYRQAPGKERELVAAISGRDGSTYYADSVKGRFTISRDNAKNTVYLQMNSLKPEDTAVYYCAADRIHSVTRYDYDYWGQGTQVTVSS	low polyreactivity
QVQLVESGGGLVQAGGSLRLSCAASGFIFVGNDMGWYRQAPGKERELVAAISSGGSTYYADSVKGRFTISRDNAKNTVYLQMNSLKPEDTAVYYCAATYVYYLYGYWGQGTQVTVSS	low polyreactivity
QVQLVESGGGLVQAGGSLRLSCAASGFIFVGNDMGWYRQAPGKERELVAAISSGGTTIYADSVKGRFTISRDNAKNTVYLQMNSLKPEDTAVYFCAADYDYRQGYDSVHLDYWGQGTQVTVSS	low polyreactivity
QVQLVESGGGLVQAGGSLRLSCAASGFIFVGNVMGWYRQAPGKERELVARISTSGGSTYYADSVKGRFTISRDNAKNTVYLQMNSLKPEDTAVYYCAARRRTGREYGYWGQGTQVTVSS	high polyreactivity
QVQLVESGGGLVQAGGSLRLSCAASGFIFVIYAMGWSRQAPGKERELVAAIRWRGGGTYYADSVKGRFTISRDNAKNTVYLQMYSLKPEDTAVYYCNADGWTYREEYWWRMDYWGQGTQVTVSS	low polyreactivity
QVQLVESGGGLVQAGGSLRLSCAASGFIFVKYAMGWNRQAPGKERELVAAITNGCSTYYADSVKGRFTISRDNAKNTVYLQMNSLKPEDTAVYYCAAGHPEYDFWGQGTQVTVSS	low polyreactivity
QVQLVESGGGLVQAGGSLRLSCAASGFIFVKYVMGWYRQAPGKERELVATITNGVSTNYADSVKGRFTISRDNAKNTVYLQMNSLKPEDTAVYYCNTGSNAWYFSGDYWGQGTQVTVSS	low polyreactivity
QVQLVESGGGLVQAGGSLRLSCAASGFIFVNYAMGWYRQAPGKERELVAAITRRGGRTYYADSVKGRFTISRDNAKNTVFLQINRLKPEDTAVYYCATENQSRTPEEDSWGQGTQVTVSS	high polyreactivity
QVQLVESGGGLVQAGGSLRLSCAASGFIFVRNAMVWYRQAPGIERELVAAIRWSGGSTYYADSVKGRFTISRDNAKNTVYLQMNSLKPEDTAVYYCAKEPPPVKGDYWGQGTQVTVSS	low polyreactivity
QVQLVESGGGLVQAGGSLRLSCAASGFIFVRNTRGWYRQAPGKERELVATITRRGGSTSYADSVKGRFTISRDNAKNTVYLQMNSLKPEDTAVYYCNARSVYGSKQEEYWGQGTQVTVSS	high polyreactivity
QVQLVESGGGLVQAGGSLRLSCAASGFIFVRYALGWYSQAPGKEMELVAAIRRGGGDSSYYADSVKGRFTISRDNAKNTVYLQMNSLKPEDTAVYYCAARPAIERDYWGQGTQVTVSS	high polyreactivity

Sequence	polyreactivity (PSR sort gate)
QVQLVESGGGLVQAGGSLRLSCAASGFIFVRYAMGWYRQAPGKERELVAAISSSGGTTNYADSVKGRFTISRDNAKNTVYLQMNSLKPEDTAVYYCAAYVYQTPHSLHIYDYWGQGTQVTVSS	low polyreactivity
QVQLVESGGGLVQAGGSLRLSCAASGFIFVRYAMGWYRQAPGKQRELVASITRSGGSTYYADSVKGRFTISRDNAKNTVYLQMNSLKPEDTAVYYCAASYFRSRGSTYGYWGQGTQVTVSS	high polyreactivity
QVQLVESGGGLVQAGGSLRLSCAASGFIFVVYTMGWYRQAPGKERELVAAITSGGSTYYADSVKGRFTISRDNAKNTVYLQMNSLKPEDTAVYYCYALASRYPAYYYWGQGTQVTVSS	low polyreactivity
QVQLVESGGGLVQAGGSLRLSCAASGFIFVYNAMGWYRQAPGKERELVAAIDYGGGSTTYADSVKGRFTISRDNAKNTVYLQMNSLKPEDTAVYYCAAYYRYLDDIYEYEYWGQGTQVTVSS	low polyreactivity
QVQLVESGGGLVQAGGSLRLSCAASGFIFWDKAMGWYRQAPGKEWELVAAISKSGTRTYYADSVKGRFTISRDTAKKTVDLQMNSLKPEETAVYYCAAEGSGYDYYYWGQGTQVTVSS	high polyreactivity
QVQLVESGGGLVQAGGSLRLSCAASGFIFWDYAMGWYRQAPGKERELVAAISDSGGDTYYADSVKGRFTISRDNAKNTVYFQMNSLKPEDTAVYYCAADVELWVFRGQQYDYWGQGTQVTVSS	low polyreactivity
QVQLVESGGGLVQAGGSLRLSCAASGFIFWGNAMGWYRQAPGKERELLAAINYSGGRTYYADSVKGRFTISRDNAKNTVYLQMNSLKPEDSAAYYCAAKYRYHVSGYDYWGQATQVTVSS	high polyreactivity
QVQLVESGGGLVQAGGSLRLSCAASGFIFWKNAMGWYRQAPGKERELVAAISWSGGRTYYADSVKGRFTISRDNAKNTVYLQMNSLKPEDTAVYYCNAAGRYKPGAPYDYWGQGTQVTVSS	low polyreactivity
QVQLVESGGGLVQAGGSLRLSCAASGFIFWNYAMGWNRQAPGKERDLVAAISSGGTITKYADSVKGRFTISRDKAKNTVYLQMNSLKPEDTAVYYCNAVVRVRFRKNDYWGQGTQVTVSS	high polyreactivity
QVQLVESGGGLVQAGGSLRLSCAASGFIFWSYAMGWYRQAPGKERELVAAINTSGDSTYYADSVKGRFTISRDNAKYTVYLQMNSLKPEDTAVYSCAAKSSTRGDYWGQGTQVTVSS	low polyreactivity
QVQLVESGGGLVQAGGSLRLSCAASGFIFWSYAMGWYRQAPGKERELVAAISWSGGRTYYADSVKGRFTISRDNAKNTVYLQMNSLKPEDTAVYYCAAVIRYGSQYPALDYWGQGTQVTVSS	high polyreactivity
QVQLVESGGGLVQAGGSLRLSCAASGFIFWTYAMGWYRQAPGKERELVAAITGGGGTTYYADSVKGRFTISRDNAKNTVYLQMNSLKPEDTAVYYCAAKQYRSRSGGYWGQGTQVTVSS	high polyreactivity
QVQLVESGGGLVQAGGSLRLSCAASGFIFWVNAMGWYRQAPGKERELVAAISQSGGTTYYADSVKGRFTISRDNAKNTVYFQMNSLKPEDTAVYYCNALWRGHGRYNYWGQGTQVTVSS	low polyreactivity
QVQLVESGGGLVQAGGSLRLSCAASGFIFWWYGMGWYRPAPGKEREFVAAITQSGSTYYADSVKGRFTISRDNAKNTVYLQMNSLKPEDTAVYYCADVVGRRLYPRYDYWGQGTQVTVSS	high polyreactivity
QVQLVESGGGLVQAGGSLRLSCAASGFIFWWYTMGWYRQAPGKETELVAAITGSGGSTYYADSVKGRFTISRDNAKNTVYLQMNSLKPEDTAVYYCNAVSAYKWQYDYWGQGTQVTVSS	high polyreactivity
QVQLVESGGGLVQAGGSLRLSCAASGFIFWYYAMGWYRPAPGQERELVAAIRRGGSTNYADSVKGRFTISRDNAKNTVYLQMNSLKPEDTAVYYCAADVPRDTFDSWGQGTQVTVSS	low polyreactivity
